Measurements as given in WO2014196658A1 (dated 2014).

Legend:
[1] = biological target: T1, human aquaporin 4 (hAQP4) M23 isoform (human, UniProt P55087 1-323); assay: cell ELISA on live CHO cells expressing hAQP4 M23, 37 °C 1 h, 4-parameter logistic fit
[2] = biological target: T1, human aquaporin 4 (hAQP4) M23 isoform; assay: ELISA on plates coated with budded baculovirus expressing human AQP4 M23

T1 sequence (P55087 whole entry, canonical isoform): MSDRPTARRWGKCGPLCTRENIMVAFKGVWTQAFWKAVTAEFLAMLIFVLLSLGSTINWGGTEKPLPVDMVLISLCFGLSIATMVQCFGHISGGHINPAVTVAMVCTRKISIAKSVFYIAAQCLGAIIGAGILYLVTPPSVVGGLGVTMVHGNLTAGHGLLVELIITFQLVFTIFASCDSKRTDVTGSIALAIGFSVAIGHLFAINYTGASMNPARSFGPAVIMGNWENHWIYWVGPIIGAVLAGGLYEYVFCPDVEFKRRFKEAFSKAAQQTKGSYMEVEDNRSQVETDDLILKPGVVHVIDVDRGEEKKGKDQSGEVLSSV

Binder	EC50 [1] [nM]	EC50 [2] [nM]
anti-aquaporin 4 monoclonal antibody produced by hybridoma clone C9401 (antibody, V domains shown, also called C9401 antibody; original antibody (C9401)) VH: QVQLQQSGPELVKPGASVRISCKASGYTFTNYYIHWVKQRPGQGLEWIGWIYPGNVNTKKNEKFKGKATLTADKSSSTAYMQLSSLTSEDSAVYFCARGVPYAFWGQGTLVTVSA VL: DIVLTQSPASLAVSLGQRATISCRASKSVDSYGNSFMHWYQQKPGQPPKLLIYRASNLESGIPARFSGSGSRTDFTLTINPVEADDVATYYCQQSNEDPPTFGGGTKLEIKR	0.162	0.166
anti-aquaporin 4 monoclonal antibody produced by hybridoma clone D12092 (antibody, V domains shown, Mouse antibody from a hybridoma; also called D12092 antibody) VH: QVQLKESGPGLVAPSQSLSITCTVSGFSLTRYGVHWVRQPPGKGLEWLVVIWSDGSTTYNSALKSRLSISKDNSKSQVFLKMNSLQTDDTAIYYCARGPPFAYWGQGTLVTVST VL: DIVLTQSPASLAVSLGQRATISCRASKSVDSYGNSFMHWYQQKPGQPPKLLIYRASNLESGIPARFSGSGSRTDFTLTINPVEADAVATYYCQQSYEDPPTFGAGTKLEIKR	0.116	
anti-aquaporin 4 monoclonal antibody produced by hybridoma clones D15107 and D15129 (same antibody) (antibody, V domains shown, Mouse antibody from hybridomas; They are therefore one molecule here, and the rows keep the printed label; also called D15107 (D15129); D15107/D15129) VH: QVQLKESGPGLVAPSQSLSITCTVSGFSLTSYGVHWVRQPPGKGLEWLGVIWAGRRTNYNSALMSRLSISKDNSKSQVFLKMNSLQTDDTAMYYCARGDGIFPYWGQGTLVTVSA VL: DIVLTQSPGSLAVSLGQRATISCRASESVDSYGNSFMHWYQQKSGQPPKLLIYRASNLESGIPARFSGSGSRTDFTLTINPVEADDVATYYCQQSNEDPFTFGSGTKLEIKR	0.15	
